Article PMC6774351 (Nature, 2019)

Biological target: the molecule itself
Assay: SEC

B1: engineered NEK7 dimer (artificial NEK7 dimer based on the PKR dimer structure) (enzyme)
chain: not shown
In the case of B1, the “stoichiometry N” value is reported as 2.
